Assay results from PMC9844003.
Numbering of substitutions follows the chain as printed. Numbers in names are those of the source.

B1: BC31M4 (hIgG1 form) L:H38R; L:H107R (protein)
chain 1: QVQLVQSGAEVKKPGASVKVSCKASGYTFTSYGISWVRQAPGQGLEWMGWISAYNGNTNYAQKLQGRVTMTTDTSTSTAYMELRSLRSDDTAVYYCARGAVYFDYWGQGTLVTVSS
chain 2: EIVLTQSPATLSLSPGERATLSCRASQSLSRNRLAWYQQKPGQPPRLLIHWASTRESGVPDRFSGSGSGTDFTLTISSLQAEDVAVYYCQQRTQNTWTFGQGTKVEIK
B2: BC31M4 (hIgG1 form) L:H55R; L:H107R (protein)
chain 1: B1 chain 1
chain 2: B1 chain 2 with R33H, H50R
B3: BC31M4 (hIgG1 form) L:H38R; L:H55R; L:H107R (protein)
chain 1: B1 chain 1
chain 2: B1 chain 2 with H50R
B4: BC31M4 (hIgG1 form) L:H38R; L:H55R (protein)
chain 1: B1 chain 1
chain 2: B1 chain 2 with H50R, R92H
B5: BC31M4 (hIgG1 form) (antibody, V domains shown)
VH: B1 chain 1
VL: B1 chain 2 with R33H, R92H

Key:
[1] = biological target: extracellular domain of CD47 fused to a His(×6)-Avi-tag; assay: ELISA; settings: chain shown with the change, read off a plot
[2] = biological target: extracellular domain of CD47 fused to a His(×6)-Avi-tag (human); assay: ELISA; CD47-ECD coated on plates; serially diluted IgGs, detected with anti-human IgG Fc-HRP; pH 6.8 (of a series from pH 6.2 to 7.6)
[3] = biological target: extracellular domain of CD47 fused to a His(×6)-Avi-tag (human); assay: ELISA; CD47-ECD coated on plates; serially diluted IgGs, detected with anti-human IgG Fc-HRP; pH 7.6 (of a series from pH 6.2 to 7.6)

Chain of extracellular domain of CD47 fused to a His(×6)-Avi-tag (chain, as listed by the source): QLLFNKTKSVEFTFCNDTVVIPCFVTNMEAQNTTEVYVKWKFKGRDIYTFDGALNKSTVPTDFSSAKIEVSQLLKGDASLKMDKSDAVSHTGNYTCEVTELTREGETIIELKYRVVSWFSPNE

Row | Binder | EC50 ([1]; pH 6.8, parent: est. -1.3) | EC50 ([1]; pH 7.4, parent: est. -0.1) | response ([1]; pH 6.8, highest antibody concentration, Log[Ab] (nM) about 3.5) | EC50 [2] | EC50 [3]
1 | B1 | 1.4 log10(nM) | 1.9 log10(nM) | – | – | –
2 | B2 | 0.4 log10(nM) | 1.3 log10(nM) | – | – | –
3 | B3 | – | – | 2 OD450 | – | –
4 | B4 | -0.9 log10(nM) | -0.1 log10(nM) | – | – | –
5 | B5 | – | – | – | 0.03 nM | 2.12 nM
